Patent publication US11136633
Changes are numbered by the printed parent chain. Names and notes keep the numbering of the source. Read-outs that look alike come from different tables or passages of the source.

B1: H8-HC40, engineered cysteine anti-5T4 (HC S40C) H8 antibody conjugated to vc-seco-DUBA (antibody, human IgG1, kappa, V domains shown)
VH: QVQLVQSGAEVKKPGASVKVSCKASGYSFTGYYMHWVKQCPGQGLEWIGRINPNNGVTLYNQKFKDRVTMTRDTSISTAYMELSRLRSDDTAVYYCARSTMITNYVMDYWGQGTLVTVSS
VL: DIVMTQSPDSLAVSLGERATINCKASQSVSNDVAWYQQKPGQSPKLLISYTSSRYAGVPDRFSGSGSGTDFTLTISSLQAEDVAVYFCQQDYNSPPTFGGGTKLEIKR
modifications: vc-seco-DUBA linker drug on engineered Cys 40; average DAR 1.7
B2: H8-HC41, engineered cysteine anti-5T4 (VH P41C) H8 antibody conjugated to vc-seco-DUBA (antibody, human IgG1, kappa, V domains shown)
VH: B1 VH with C40S, P41C
VL: B1 VL
modifications: vc-seco-DUBA linker drug on engineered Cys 41; average DAR 1.7
B3: wild-type H8 antibody (anti-5T4) (antibody, human IgG1, kappa, V domains shown)
VH: B1 VH with C40S
VL: B1 VL
notes: Naked antibody, human IgG1 kappa
B4: ADC-HC41 (SYD1091), engineered cysteine anti-PSMA (VH S41C) antibody conjugated to vc-seco-DUBA (antibody, human IgG1, kappa, V domains shown)
VH: EVQLVQSGAEVKKPGASVKISCKTSGYTFTEYTIHWVKQACGKGLEWIGNINPNNGGTTYNQKFEDRATLTVDKSTSTAYMELSSLRSEDTAVYYCAAGWNFDYWGQGTTVTVSS
VL: DIVMTQSPSSLSASVGDRVTITCKASQDVGTAVDWYQQKPGKAPKLLIYWASTRHTGVPDRFTGSGSGTDFTLTISSLQPEDFADYFCQQYNSYPLTFGGGTKLEIKR
modifications: vc-seco-DUBA linker drug on engineered Cys 41 (Kabat numbering); average DAR 1.7
B5: ADC-HC41 (vc-MMAE), anti-PSMA antibody (HC S41C) conjugated to vc-MMAE (antibody, human IgG1, kappa, V domains shown)
VH: B4 VH
VL: B4 VL
modifications: vc-MMAE linker drug on engineered Cys 41 (Kabat numbering); average DAR 1.8

How the values were obtained:
[1] = target: T1, 5T4 (on 5T4-expressing MDA-MB-468 cells) (human, UniProt Q13641 32-420); assay: cell-based or functional assay
T1 sequence (looked up): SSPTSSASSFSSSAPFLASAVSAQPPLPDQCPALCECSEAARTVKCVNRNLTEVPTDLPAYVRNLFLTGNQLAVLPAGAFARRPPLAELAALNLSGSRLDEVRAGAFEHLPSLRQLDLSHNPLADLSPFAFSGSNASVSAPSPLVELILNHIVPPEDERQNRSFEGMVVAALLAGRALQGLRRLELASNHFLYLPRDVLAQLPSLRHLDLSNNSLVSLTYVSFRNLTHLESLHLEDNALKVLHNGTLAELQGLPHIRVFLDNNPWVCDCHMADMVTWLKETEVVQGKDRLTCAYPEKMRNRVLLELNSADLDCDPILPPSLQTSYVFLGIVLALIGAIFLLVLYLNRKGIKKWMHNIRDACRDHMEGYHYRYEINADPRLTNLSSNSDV

[2] = target: T1, 5T4 (on 5T4-expressing MDA-MB-468 cells); assay: cellular binding on 5T4-expressing MDA-MB-468 cells
[3] = target: T2, PSMA (on PSMA-expressing LNCaP-C4.2 cells) (human, UniProt Q04609 1-750); assay: cell-based or functional assay
T2 sequence (Q04609 whole entry): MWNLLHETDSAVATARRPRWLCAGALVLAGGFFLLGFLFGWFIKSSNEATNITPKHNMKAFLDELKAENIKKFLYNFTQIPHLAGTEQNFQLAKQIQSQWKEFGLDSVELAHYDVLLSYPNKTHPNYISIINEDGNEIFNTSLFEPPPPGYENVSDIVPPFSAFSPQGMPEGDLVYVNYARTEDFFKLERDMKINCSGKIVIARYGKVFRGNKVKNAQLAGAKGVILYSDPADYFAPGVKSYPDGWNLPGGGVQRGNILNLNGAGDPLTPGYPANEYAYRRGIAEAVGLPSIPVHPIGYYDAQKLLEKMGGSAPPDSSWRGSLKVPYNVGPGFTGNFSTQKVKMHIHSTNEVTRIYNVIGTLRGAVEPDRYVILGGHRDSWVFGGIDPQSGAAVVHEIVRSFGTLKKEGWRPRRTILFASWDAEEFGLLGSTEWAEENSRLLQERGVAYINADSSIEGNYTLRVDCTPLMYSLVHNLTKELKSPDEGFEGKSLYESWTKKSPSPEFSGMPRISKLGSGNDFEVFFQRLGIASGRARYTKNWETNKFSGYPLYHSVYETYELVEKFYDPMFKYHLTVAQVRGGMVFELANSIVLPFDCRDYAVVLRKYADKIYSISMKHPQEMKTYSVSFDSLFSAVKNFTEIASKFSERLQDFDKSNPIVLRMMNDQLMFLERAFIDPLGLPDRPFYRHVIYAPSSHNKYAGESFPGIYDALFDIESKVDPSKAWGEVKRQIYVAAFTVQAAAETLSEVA

[4] = target: T2, PSMA (on PSMA-expressing LNCaP-C4.2 …); assay: cell-based or functional assay; remark: listed apart in the source

Row | Binder | % efficacy, in vitro cytotoxicity on MDA-MB-468 at ~100 nM [1] | IC50, in vitro cytotoxicity on 5T4-positive cell line MDA-MB-468 [1] | further results
1 | B1 | 88% | 0.07 nM | –
2 | B2 | 88% | 0.07 nM | –
3 | B3 | – | – | binding result [2]: binds
4 | B4 | – | – | IC50, in vitro cytotoxicity on PSMA-positive cell line LNCaP-C4.2 [3]: 0.25 nM
5 | B5 | – | – | IC50, in vitro cytotoxicity on PSMA-positive cell line LNCaP-C4.2 [4]: 0.39 nM
